Reference: paper PMC11826091

Legend:
[1] = test system: T1, MtvA (Pseudomonas aeruginosa PAD8 (plasmid pPAD8)), ORF:f8ca6192; test: EMSA; settings: pH 8.0, 25 min at room temperature
T1 sequence: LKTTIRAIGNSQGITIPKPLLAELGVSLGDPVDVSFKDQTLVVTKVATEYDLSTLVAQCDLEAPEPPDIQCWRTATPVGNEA

[2] = test system: MtvA;MtvT (Pseudomonas aeruginosa PAD8 (plasmid pPAD8);Pseudomonas aeruginosa PAD8 (plasmid pPAD8)), ORF:f8ca6192+ORF:03226125; test: EMSA; settings: pH 8.0, 25 min at room temperature

| Sequence | binding [1] | binding [2] |
| --- | --- | --- |
| TTACTCGAGAAGTTTGGAATAACCAGAGATATGCTCGTCAACAACGAATGTTTGAACATATTTATCGGAACTTATTACATTCAGCGTAGCGTGCTGGGGAGTGATGATTTTTGGAAGGGCGTTGGTAATTACCACTCTCGCACGCCCGACAAAAACTACCGGTACAAACATCGTGTGTGGAACAGTCTCAAAGAAGTCCGGGGGCAGCAGGATCCATA (double strand) [P-icmP] | binds | binds |
| TTACTCGAGTGATGGCGATCGCCGCCGACGATGCTTCGTTTGATCACAGCTGCGTGGTCAACTTCAAATCGGCCGCCTGAGGGCGGCCCTACCCATAGATCCTGATTCCTCAACAAGAAAAAGCGACGTGTCCATTCGTTGACACTAAAGGTATTTTTGCGTATTTTTCGACATTATCATCTAATGAAAGTCGTTGGGGTTTGTTCGGTGGATCCATA (double strand) [P-icmL] | binds | binds |
| GTACGATCATCTTCACTTCCTCCAAATAGGAAGCTGAAGAATTTATGCAAATTTCATAATTTTATAACTAGCAAATGAGATAGATTTCGGTGAACCCGGACCCTTGCTAGGCTCGAAGAAACGTCCGAAAAGATCAGAGCA (double strand) [P-lasI] | no binding | no binding |
| GCCGTCTCCGCGCGGGAGGAAAAGGCCACAGCGATGTGGCTTTTTTCTTAAAAGAAAAGTCTCTCAGTGACAAAAGCGATGCATAGCCCGGTGCTAGCATGCGCTGAGCTTTAGGAGGCGCCCCC (double strand) [P-exsC] | no binding | no binding |
| TATGGATCCCGTATCTGCTCGGTTGGTTGATGGACAAAGCGCTTATCAAAAGGAAAACAACGCTTTGGCGCACGACTATACAGCAACGAAAGTCGAACGATAAGGCAATGATAGTCAGAAGTGACCCACCACTCAACACCAACCCACGCCCATATAGGTCTACGGTGACCTAAAACCTCGCTCGCCCTCCAAATAGGTCACCTGTGACCCTCGAGTAA (double strand) [P-dotD] | binds | binds |
| GCTGGGAAGGCTCGCGATGATGAGGGGACTGGCCACTGTAGCGGGCCCGGCGCAGATCATCTTGACGCACGGCAAGCTCCCGGCGGCTGGGTGTTGCCGTCGGTCCGGCGAGCGGAACTATTACAGCGTGTAAGCCAAGGCTTACAAACGGCGGTGGTTTTGGCTGCTTTCTCCCCCTCGCAGAGATGCGTAATCTTCAAACCGTCAGGACATTGCGCAGG (double strand) [P-rsmY] | binds | binds |
| CGGAAAACCTTAGACCCACTGAAGACCCGGCGTTCGCCGGGTTTTTTGTGTCTGCTCTTGTAAGCATTAACTTACACGGCGTGTGAGCCTAAGTAGATAAATGCCCGGGAGGTTTGCCAAAAACGCTCGGTGAATTTAAGTAACTTATTGAAATTAAAGGAATATATTTTTCTAAAATGGCTGCCGAAGAAGCTTCGCTGGGTTTTCTGGCAGGTTGCGGGAGCACTGGGAATCGCTAATATCACTCCTG (double strand) [P-rsmZ] | binds | binds |
